{"source": "patent US20200085789A1", "about": "“USE OF A PROTEASOME INHIBITOR FOR THE TREATMENT OF CENTRAL NERVOUS SYSTEM (CNS) CANCERS” (Celgene International II Sàrl, priority 2017, published 2020)", "experiment": "Adverse events and dose-limiting toxicity (NCI-CTCAE v 4.03), MRZ ± BEV in recurrent grade IV malignant glioma patients", "type": "in vivo, human", "excerpt": "An adverse event (AE) is any noxious, unintended, or untoward medical occurrence that may appear or worsen in a subject during the course of a study. […] Any worsening (i.e., any clinically significant adverse change in the frequency or intensity of a pre-existing condition) should be considered an AE.\nThe severity/intensity of AEs will be graded based upon the subject's symptoms according to the current active minor version of the Common Terminology Criteria for Adverse Events ( ).", "key": {"[1]": {"conditions": "MRZ 0.7 mg/m^2 + BEV, Cohort 2 (N = 3)"}, "[2]": {"conditions": "MRZ 0.8 mg/m^2 + BEV, Cohorts 3 & 4 (N = 27)"}, "[3]": {"conditions": "treated with MRZ 0.8 mg/m^2 + BEV (N = 27)"}}, "data": [{"substance": "bevacizumab [reference compound]", "values": [{"measurement": "Grade ≥3 Ataxia related to the labelled drug, patients", "setting": "[1]", "result": 0}, {"measurement": "Grade ≥3 Confusional State related to the labelled drug, patients", "setting": "[1]", "result": 0}, {"measurement": "Grade ≥3 Delusion related to the labelled drug, patients", "setting": "[1]", "result": 0}, {"measurement": "Grade ≥3 Dyspnea related to the labelled drug, patients", "setting": "[1]", "result": 0}, {"measurement": "Grade ≥3 Embolism related to the labelled drug, patients", "setting": "[1]", "result": 0}, {"measurement": "Grade ≥3 Fall related to the labelled drug, patients", "setting": "[1]", "result": 0}, {"measurement": "Grade ≥3 Fatigue related to the labelled drug, patients", "setting": "[1]", "result": 0}, {"measurement": "Grade ≥3 Hallucination related to the labelled drug, patients", "setting": "[1]", "result": 0}, {"measurement": "Grade ≥3 Headache related to the labelled drug, patients", "setting": "[1]", "result": 0}, {"measurement": "Grade ≥3 Hypertension related to the labelled drug, patients", "setting": "[1]", "result": 1}, {"measurement": "Grade ≥3 Hyponatremia related to the labelled drug, patients", "setting": "[1]", "result": 0}, {"measurement": "Grade ≥3 Insomnia related to the labelled drug, patients", "setting": "[1]", "result": 0}, {"measurement": "Grade ≥3 Intracranial Hemorrhage related to the labelled drug, patients", "setting": "[1]", "result": 0}, {"measurement": "Grade ≥3 Optic Nerve Disorder related to the labelled drug, patients", "setting": "[1]", "result": 0}, {"measurement": "Grade ≥3 Proteinuria related to the labelled drug, patients", "setting": "[1]", "result": 1}, {"measurement": "Grade ≥3 Ataxia related to the labelled drug, patients", "setting": "[2]", "result": 0}, {"measurement": "Grade ≥3 Confusional State related to the labelled drug, patients", "setting": "[2]", "result": 0}, {"measurement": "Grade ≥3 Delusion related to the labelled drug, patients", "setting": "[2]", "result": 0}, {"measurement": "Grade ≥3 Dyspnea related to the labelled drug, patients", "setting": "[2]", "result": 1}, {"measurement": "Grade ≥3 Embolism related to the labelled drug, patients", "setting": "[2]", "result": 1}, {"measurement": "Grade ≥3 Fall related to the labelled drug, patients", "setting": "[2]", "result": 0}, {"measurement": "Grade ≥3 Fatigue related to the labelled drug, patients", "setting": "[2]", "result": 1}, {"measurement": "Grade ≥3 Hallucination related to the labelled drug, patients", "setting": "[2]", "result": 0}, {"measurement": "Grade ≥3 Headache related to the labelled drug, patients", "setting": "[2]", "result": 1}, {"measurement": "Grade ≥3 Hypertension related to the labelled drug, patients", "setting": "[2]", "result": 5}, {"measurement": "Grade ≥3 Hyponatremia related to the labelled drug, patients", "setting": "[2]", "result": 0}, {"measurement": "Grade ≥3 Insomnia related to the labelled drug, patients", "setting": "[2]", "result": 0}, {"measurement": "Grade ≥3 Intracranial Hemorrhage related to the labelled drug, patients", "setting": "[2]", "result": 1}, {"measurement": "Grade ≥3 Optic Nerve Disorder related to the labelled drug, patients", "setting": "[2]", "result": 1}, {"measurement": "Grade ≥3 Proteinuria related to the labelled drug, patients", "setting": "[2]", "result": 0}, {"measurement": "Anaemia: # Patients, AE related to the labelled drug(s)", "setting": "pts on MRZ+BEV", "result": 0}, {"measurement": "Anxiety: # Patients, AE related to the labelled drug(s)", "setting": "pts on MRZ+BEV", "result": 0}, {"measurement": "Aphasia: # Patients, AE related to the labelled drug(s)", "setting": "pts on MRZ+BEV", "result": 0}, {"measurement": "Appendicitis Perforated: # Patients, AE related to the labelled drug(s)", "setting": "pts on MRZ+BEV", "result": 0}, {"measurement": "Asthenia: # Patients, AE related to the labelled drug(s)", "setting": "pts on MRZ+BEV", "result": 0}, {"measurement": "Ataxia: # Patients, AE related to the labelled drug(s)", "setting": "pts on MRZ+BEV", "result": 0}, {"measurement": "Confusional State: # Patients, AE related to the labelled drug(s)", "setting": "pts on MRZ+BEV", "result": 0}, {"measurement": "Constipation: # Patients, AE related to the labelled drug(s)", "setting": "pts on MRZ+BEV", "result": 0}, {"measurement": "Convulsion: # Patients, AE related to the labelled drug(s)", "setting": "pts on MRZ+BEV", "result": 0}, {"measurement": "Delusion: # Patients, AE related to the labelled drug(s)", "setting": "pts on MRZ+BEV", "result": 0}, {"measurement": "Depressed Level of Consciousness: # Patients, AE related to the labelled drug(s)", "setting": "pts on MRZ+BEV", "result": 0}, {"measurement": "Diarrhoea: # Patients, AE related to the labelled drug(s)", "setting": "pts on MRZ+BEV", "result": 0}, {"measurement": "Dizziness: # Patients, AE related to the labelled drug(s)", "setting": "pts on MRZ+BEV", "result": 0}, {"measurement": "Dysarthria: # Patients, AE related to the labelled drug(s)", "setting": "pts on MRZ+BEV", "result": 0}, {"measurement": "Dysphagia: # Patients, AE related to the labelled drug(s)", "setting": "pts on MRZ+BEV", "result": 0}, {"measurement": "Dysphonia: # Patients, AE related to the labelled drug(s)", "setting": "pts on MRZ+BEV", "result": 10}, {"measurement": "Dyspnoea: # Patients, AE related to the labelled drug(s)", "setting": "pts on MRZ+BEV", "result": 0}, {"measurement": "Ear Infection: # Patients, AE related to the labelled drug(s)", "setting": "pts on MRZ+BEV", "result": 0}, {"measurement": "Epistaxis: # Patients, AE related to the labelled drug(s)", "setting": "pts on MRZ+BEV", "result": 7}, {"measurement": "Falls: # Patients, AE related to the labelled drug(s)", "setting": "pts on MRZ+BEV", "result": 0}, {"measurement": "Fatigue: # Patients, AE related to the labelled drug(s)", "setting": "pts on MRZ+BEV", "result": 0}, {"measurement": "Fracture of Femur: # Patients, AE related to the labelled drug(s)", "setting": "pts on MRZ+BEV", "result": 0}, {"measurement": "Hallucination: # Patients, AE related to the labelled drug(s)", "setting": "pts on MRZ+BEV", "result": 0}, {"measurement": "Headache: # Patients, AE related to the labelled drug(s)", "setting": "pts on MRZ+BEV", "result": 1}, {"measurement": "Hemiparesis: # Patients, AE related to the labelled drug(s)", "setting": "pts on MRZ+BEV", "result": 0}, {"measurement": "Hyperglycemia: # Patients, AE related to the labelled drug(s)", "setting": "pts on MRZ+BEV", "result": 0}, {"measurement": "Hypertension: # Patients, AE related to the labelled drug(s)", "setting": "pts on MRZ+BEV", "result": 13}, {"measurement": "Hypokalemia: # Patients, AE related to the labelled drug(s)", "setting": "pts on MRZ+BEV", "result": 0}, {"measurement": "Hyponatremia: # Patients, AE related to the labelled drug(s)", "setting": "pts on MRZ+BEV", "result": 0}, {"measurement": "Hypotension: # Patients, AE related to the labelled drug(s)", "setting": "pts on MRZ+BEV", "result": 0}, {"measurement": "Infusion Site Pain: # Patients, AE related to the labelled drug(s)", "setting": "pts on MRZ+BEV", "result": 0}, {"measurement": "Insomnia: # Patients, AE related to the labelled drug(s)", "setting": "pts on MRZ+BEV", "result": 1}, {"measurement": "Lymphocyte Count Decreased: # Patients, AE related to the labelled drug(s)", "setting": "pts on MRZ+BEV", "result": 0}, {"measurement": "Muscular Weakness: # Patients, AE related to the labelled drug(s)", "setting": "pts on MRZ+BEV", "result": 0}, {"measurement": "Nausea: # Patients, AE related to the labelled drug(s)", "setting": "pts on MRZ+BEV", "result": 0}, {"measurement": "Optic Nerve Disorder: # Patients, AE related to the labelled drug(s)", "setting": "pts on MRZ+BEV", "result": 1}, {"measurement": "Pyramidal Tract Syndrome: # Patients, AE related to the labelled drug(s)", "setting": "pts on MRZ+BEV", "result": 0}, {"measurement": "Tumor Metastasis: # Patients, AE related to the labelled drug(s)", "setting": "pts on MRZ+BEV", "result": 0}, {"measurement": "Vision Blurred: # Patients, AE related to the labelled drug(s)", "setting": "pts on MRZ+BEV", "result": 0}, {"measurement": "Vomiting: # Patients, AE related to the labelled drug(s)", "setting": "pts on MRZ+BEV", "result": 0}, {"measurement": "Anaemia related to the labelled drug(s)", "setting": "[3]", "result": "(0.0%)"}, {"measurement": "Anaemia related to the labelled drug(s), patients", "setting": "[3]", "result": 0}, {"measurement": "Ataxia related to the labelled drug(s)", "setting": "[3]", "result": "(0.0%)"}, {"measurement": "Ataxia related to the labelled drug(s), patients", "setting": "[3]", "result": 0}, {"measurement": "Confusional state related to the labelled drug(s)", "setting": "[3]", "result": "(3.7%)"}, {"measurement": "Confusional state related to the labelled drug(s), patients", "setting": "[3]", "result": 1}, {"measurement": "Constipation related to the labelled drug(s)", "setting": "[3]", "result": "(3.7%)"}, {"measurement": "Constipation related to the labelled drug(s), patients", "setting": "[3]", "result": 1}, {"measurement": "Diarrhoea related to the labelled drug(s)", "setting": "[3]", "result": "(3.7%)"}, {"measurement": "Diarrhoea related to the labelled drug(s), patients", "setting": "[3]", "result": 1}, {"measurement": "Dizziness related to the labelled drug(s)", "setting": "[3]", "result": "(3.7%)"}]}]}
